Measurements as given in patent US20220412989A1, “COMPOSITIONS AND METHODS FOR DETECTING CELLS UNDERGOING FERROPTOSIS USING AN ANTIBODY” (THE TRUSTEES OF COLUMBIA UNIVERSITY IN THE CITY OF NEW YORK, priority 2020, published 2022).

Experiments:
[1] = target: T1, TfR1 in mouse liver tissue (Mus musculus, UniProt Q62351); assay: Staining of normal mouse liver frozen tissue; details: frozen tissue samples
T1 construct: from tissue; host or cells: normal mouse liver, frozen sections
Procedure: FIGS. 12A-12B show 3F3 FMA staining in human Huntington's disease brains and mouse tissues. In FIG. 12A, human HD and control brain tissues were fixed in 4% PFA for 24 h, perfused in 30% sucrose for 24 h, and stained with DAPI (nuclei, blue) and 3F3 FMA (red). The expression level of TfR1 is low. There was no difference between HD and control groups. In FIG. 12B, mouse liver tissues and mouse GBM tissues were fixed and stained with DAPI (nuclei, blue) and 3F3 FMA (red). 3F3 FMA was able to recognize mouse TfR1.

HT-1080 cells = assay: Immunofluorescence staining of cells treated with cell death inducers, membrane intensity; type: cell-based, human
Procedure: HT-1080 (ATCC Cat #CRL-7951, RRID:CVCL_0317), A-673, SK-BR-3, SK-LMS-1 and Huh-7 cells were treated with 1 μM RSL3 for 4 h, 15 μM erastin for 8 h, 10 μM IKE for 8 h, 15 μM FINO2 for 8 h, 10 μM FIN56 for 8 h, 100 μM tBuOOH for 8 h, 1 μM staurosporine (STS) for 6 h, 2 μM camptothecin (CPT) for 24 h, 1 μM RSL3+5 μM Fer-1 for 4 h and 10 μM IKE+5 μM Fer-1 for 8 h on poly-lysine-coated cover slips (Sigma Aldrich P4832) in 24-well plate. Media were taken out and the cells were gently washed with PBS^++ (PBS with 1 mM CaCl2) and 0.5 mM MgCl2) twice. The cells were fixed and permeabilized by adding 200 μL/well of 4% paraformaldehyde (PFA) in PBS with 0.1% Triton X-100 (PBT), and incubated at room temperature for 18 min. The cells were then washed with PBT three times. Then the cells were blocked with 5% goat serum (ThermoFisher 50197Z) in PBT for 1 h at room temperature. The cells were incubated with purified mouse monoclonal antibodies (1:5 dilution), mouse mAb 3F3 FMA (1:500 dilution), Transferrin Receptor/CD71 Monoclonal Antibody, Clone: H68.4, Invitrogen (Thermo Fisher Scientific Cat #13-6800, RRID:AB_2533029, 1:250 dilution), Cd71 (D7G9X) XP® Rabbit mAb (Cell Signaling Technology Cat #13113, RRID:AB_2715594, 1:100 dilution), CD71 (3B8 2A1) (Santa Cruz Biotechnology Cat #sc-32272, RRID:AB_627167, 1:50 dilution), Tom20 (FL-145) (Santa Cruz Biotechnology Cat #sc-11415, RRID:AB_2207533, 1:250 dilution), PDI antibody [RL90]—ER Marker (Abcam Cat #ab2792, RRID:AB_303304, 1:100 dilution), Gm130 (D6B1) XP® Rabbit mAb (Cell Signaling Technology Cat #12480, RRID:AB_2797933, 1:3200 dilution), Anti-Malondialdehyde antibody (Abcam Cat #ab6463, RRID:AB_305484, 1:400 dilution), Anti-4 Hydroxynonenal antibody (Abcam Cat #ab46544, RRID:AB_722493, 1:50 dilution), ACSL4 Antibody (F-4) (Santa Cruz Biotechnology Cat #sc-365230, RRID:AB_10843105, 1:50 dilution), mouse mAb 1F83 (1:100 dilution), which specifically recognizes the malondialdehyde (MDA)-lysine adduct 4-methyl-1,4-dihydropyridine-3,5-dicarbaldehyde (MDHDC) (Yamada et al., 2001), in PBT with 1% BSA and 5% goat serum overnight at 4° C. The cells were washed with PBT for 5 min three times. The cells were incubated with Goat anti-Mouse IgG (H+L) Highly Cross-Adsorbed Secondary Antibody, Alexa Fluor 594 (Thermo Fisher Scientific Cat #A-11032, RRID:AB_2534091, 1:200 dilution) or Goat anti-Rabbit IgG (H+L) Highly Cross-Adsorbed Secondary Antibody, Alexa Fluor 488 (Thermo Fisher Scientific Cat #A-11034, RRID:AB_2576217, 1:200 dilution) at room temperature for 1 h. The cells were washed with PBT for 5 min three times. ProLong Diamond antifade mountant with DAPI (ThermoFisher P36962) was added to stain the nucleus. All images were captured on a Zeiss LSM 800 confocal microscope at Plan-Apochromat 63x/1.40 Oil DIC objective with constant laser intensity for all samples. When applicable, line-scan analysis was performed on representative confocal microscopy images using Zeiss LSM software to qualitatively visualize fluorescence overlap.
The quantification of the intensity of antibodies was analyzed using CellProfiler 3.1.8 (Carpenter et al., 2006) (CellProfiler Image Analysis Software, RRID:SCR_007358). Nuclei were firstly identified as primary objects using global minimum cross entropy strategy. […] Then mean intensities and size areas of nuclei, cytoplasm and plasma membranes were then measured and reported. […]

mouse TfR1 protein = target: T2, mouse TfR1 protein (Mus musculus, UniProt Q62351); assay: Staining of mouse glioblastoma paraffin-embedded tissue
T2 construct: from tissue; host or cells: murine glioma grown from murine glioma cells injected into c57/B6 mouse brain
T2 sequence (Q62351 whole entry): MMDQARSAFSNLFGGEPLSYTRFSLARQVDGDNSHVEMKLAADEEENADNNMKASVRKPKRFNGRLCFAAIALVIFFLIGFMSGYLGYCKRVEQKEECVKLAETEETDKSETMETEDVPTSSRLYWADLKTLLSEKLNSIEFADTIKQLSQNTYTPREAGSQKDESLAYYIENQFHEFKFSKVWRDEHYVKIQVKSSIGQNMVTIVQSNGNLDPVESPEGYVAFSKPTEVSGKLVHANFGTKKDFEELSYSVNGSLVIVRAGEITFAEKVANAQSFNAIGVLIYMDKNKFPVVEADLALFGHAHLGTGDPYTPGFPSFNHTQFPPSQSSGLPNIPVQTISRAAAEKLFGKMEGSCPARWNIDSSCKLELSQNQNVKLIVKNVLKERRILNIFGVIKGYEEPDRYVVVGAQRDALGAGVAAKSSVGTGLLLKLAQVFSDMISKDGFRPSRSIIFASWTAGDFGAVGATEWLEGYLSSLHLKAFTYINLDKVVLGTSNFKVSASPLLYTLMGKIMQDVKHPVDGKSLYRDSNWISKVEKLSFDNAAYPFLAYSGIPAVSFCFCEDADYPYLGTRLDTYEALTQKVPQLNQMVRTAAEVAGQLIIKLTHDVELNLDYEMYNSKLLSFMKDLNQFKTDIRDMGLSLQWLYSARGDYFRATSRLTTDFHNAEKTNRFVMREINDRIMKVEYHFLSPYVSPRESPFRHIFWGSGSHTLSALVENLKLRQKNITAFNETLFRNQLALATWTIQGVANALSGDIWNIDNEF
Procedure: All procedures were performed according to the Columbia University Medical Center Institutional Animal Care and Use Committee. Murine glioma cell lines were created from tumor bearing mice. These tumors were generated by injection of a PDGF-IRES-Cre retrovirus into the subcortical white matter of mice with floxed PTEN and/or p53 (Sonabend et al., 2013). After mice reached end stage, the tumors were dissociated and primary cell cultures were created. These cells harbored the specific mutations of the original tumors, and could be re-injected to form gliomas in c57/B6 mice with high fidelity. Briefly, mice between the ages of 6-8 weeks received 50,000 murine glioma cells through stereotactic injection after being anesthetized with a ketamine/xylazine cocktail (87.5 mg/12.5 mg w/w). After cessation of toe-pinch reflex, the scalp was shaved and cleaned with serial use of betadine and 70% ethanol swabs. An incision was made and the skull was exposed. A burr hole was created, 2 mm anterior, 2 mm lateral and 2 mm deep to the right of the bregma. The cells were injected into the subcortical white matter over a period of 3 minutes (0.333 μL/min). Once the injection ceased, the needle was left in place for 1 minute before being slowly withdrawn. After tumor developed, brains were harvested and fixed in 4% paraformaldehyde and embedded in paraffin. 5 micron sections were made for staining.

[2] = system: A-673, SK-BR-3, Huh-7 and SK-LMS-1 cells; assay: Immunofluorescence staining in other cancer cell lines; type: cell-based, human; details: 1 μM RSL3, 4 h
Procedure: HT-1080 (ATCC Cat #CRL-7951, RRID:CVCL_0317), A-673, SK-BR-3, SK-LMS-1 and Huh-7 cells were treated with 1 μM RSL3 for 4 h, 15 μM erastin for 8 h, 10 μM IKE for 8 h, 15 μM FINO2 for 8 h, 10 μM FIN56 for 8 h, 100 μM tBuOOH for 8 h, 1 μM staurosporine (STS) for 6 h, 2 μM camptothecin (CPT) for 24 h, 1 μM RSL3+5 μM Fer-1 for 4 h and 10 μM IKE+5 μM Fer-1 for 8 h on poly-lysine-coated cover slips (Sigma Aldrich P4832) in 24-well plate. Media were taken out and the cells were gently washed with PBS^++ (PBS with 1 mM CaCl2) and 0.5 mM MgCl2) twice. The cells were fixed and permeabilized by adding 200 μL/well of 4% paraformaldehyde (PFA) in PBS with 0.1% Triton X-100 (PBT), and incubated at room temperature for 18 min. The cells were then washed with PBT three times. Then the cells were blocked with 5% goat serum (ThermoFisher 50197Z) in PBT for 1 h at room temperature. […] When applicable, line-scan analysis was performed on representative confocal microscopy images using Zeiss LSM software to qualitatively visualize fluorescence overlap.
The quantification of the intensity of antibodies was analyzed using CellProfiler 3.1.8 (Carpenter et al., 2006) (CellProfiler Image Analysis Software, RRID:SCR_007358). […] Then mean intensities and size areas of nuclei, cytoplasm and plasma membranes were then measured and reported. […]

T1 sequence (Q62351 whole entry): as above

staining signal in normal mouse liver [1]: robust signal
recognition of TfR1 in mouse GBM tumor samples (mouse TfR1 protein): able to recognize mouse TfR1 protein
B1: 3F3-FMA: murine monoclonal IgG1 raised against ferroptotic membrane fractions; antigen is human transferrin receptor protein 1 (TfR1) (antibody, V domains shown)
VH: EVLLQQSGTELVRPGALVKLSCKASGFNIQDLYIHWVKQRPEQGLEWIGWIDPETDNTIYDPKFQGKASITADTSSNTAYLQLSSLTSEDTAMYYCSTGLLQWYFDVWGAGTAVTVSS
VL: DIVMTQSPSSLAMSIGQKVTMRCKSSQSLLNSYNQKNCLAWYQQKPGQSPKLLLYFVSTRESGVPDRFIGSGSGTDFTLTISSVQAEDLADYFCQQHYSTPLTFGAGTKLELK
staining / membrane intensity in RSL3-induced ferroptosis (HT-1080 cells; 1 μM RSL3, 4 h vs DMSO): stained cell boundaries and the inside puncta became brighter
cell surface / membrane staining in STS-induced apoptosis (HT-1080 cells; 1 μM staurosporine, 6 h): wasn't detected
cell surface / membrane intensity in camptothecin-induced apoptosis (HT-1080 cells; 2 μM camptothecin, 24 h): no significant increase
membrane intensities in H2O2-treated cells (HT-1080 cells; 1 mM H2O2, 4 h): didn't observe increased membrane intensities
staining pattern with other ferroptosis inducers (HT-1080 cells; IKE, erastin, FIN56, FINO2 and tBuOOH, 8 h): the same changes of 3F3-FMA pattern were observed
staining upon ferroptosis induction [2]: staining concentrated at the cell boundaries and became brighter
